PMC3082896

Test system: LdTOP1L/S large subunit (LdTOP1L);LdTOP1L/S small subunit (LdTOP1S) (Leishmania donovani;Leishmania donovani)
Experiment: EMSA

Sequence: GAAAAAAGACTTAGAAAAATTTTTA (double strand)
- binding signal (% of input DNA bound): 79
